Reference: publication PMC5038948, “The Role of Neutrophil Proteins on the Amyloid Beta-RAGE Axis” (PLoS ONE, 2016)
pIC50, pKd: −log10 of the molar value.

Tests used:
[1] = target: T1, RAGE Fc chimera (Homo sapiens, UniProt Q15109); test: ELISA: binding of RAGE to coated neutrophil proteins; set-up: purchased R&D Systems Inc. (Minneapolis, MN); conditions: for maximum absorbance value for RAGE binding: ELISA, BSA subtracted as background, nonlinear regression fit; for Log binding (RAGE): wells coated 0.5 μg/well protein, log-transformed OD 492 nm, mean ± SEM
T1 sequence (Q15109 with tags, fused parts or gaps limits assumed): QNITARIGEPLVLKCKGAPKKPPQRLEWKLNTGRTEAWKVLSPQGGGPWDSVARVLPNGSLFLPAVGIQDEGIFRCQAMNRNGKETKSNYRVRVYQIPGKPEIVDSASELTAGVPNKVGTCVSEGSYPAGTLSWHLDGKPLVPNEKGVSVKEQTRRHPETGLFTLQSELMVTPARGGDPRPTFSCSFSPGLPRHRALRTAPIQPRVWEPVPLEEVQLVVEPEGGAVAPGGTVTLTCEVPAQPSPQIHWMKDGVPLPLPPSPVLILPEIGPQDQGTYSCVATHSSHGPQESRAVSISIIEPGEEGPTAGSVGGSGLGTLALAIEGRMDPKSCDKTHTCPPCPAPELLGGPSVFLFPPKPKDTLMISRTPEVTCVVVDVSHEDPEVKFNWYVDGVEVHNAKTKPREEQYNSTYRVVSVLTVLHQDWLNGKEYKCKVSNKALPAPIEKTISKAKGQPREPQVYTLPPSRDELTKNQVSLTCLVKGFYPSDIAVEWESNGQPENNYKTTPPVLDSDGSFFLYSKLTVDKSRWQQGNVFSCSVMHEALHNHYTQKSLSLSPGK
Procedure: (§1) The plates were washed three times with PBS containing 0.05% tween (PBST), and then blocked in PBST containing 3% bovine serum albumin (BSA). Indicated proteins were added to the plate in 50 μL PBST containing 0.1% BSA and incubated at 37°C for 70 mins. Wells were washed four times with PBST, and then incubated with 50 μL of goat anti-RAGE primary antibody (0.5 μg/ml) or mouse anti-APP/Aβ antibody (0.5 μg/ml-1 μg/ml) for 1 h. After washing the wells four times with PBST, 50 μL of rabbit anti-goat at 0.16 μg/ml or donkey anti-mouse at 0.04–0.08 μg/ml secondary antibodies were added for 1 h at room temperature.
Goat anti-RAGE primary antibody at 0.5 μg/ml was used to detect bound RAGE.
(§2) All statistics were performed using Graph Pad Prism 6 (GraphPad Software, La Jolla, CA). Data are represented as mean± SEM of results. […] Two-way analysis of variances (ANOVAs) were performed with Dunnett’s multiple comparison tests. […] Kruskal-Wallis tests with Dunn’s multiple comparison tests were used to analyze binding by Far-Western dot blotting (see figure legends 3 and 6 for details on multiple comparison tests). […] To obtain dissociation constants (Kd), half-maximal inhibitory concentrations (IC50), and maximum absorbance values, BSA was subtracted as background and values were fitted to a curve of nonlinear regression.

[2] = target: T2, Aβ1–42 (Homo sapiens, UniProt P05067); test: ELISA: binding of Aβ1–42 to coated neutrophil proteins; conditions: for Log binding (Aβ1–42): 0.5 μg/well coated protein, with protease inhibitor cocktail, log OD 492 nm, mean ± SEM, n = 3; for maximum absorbance value for Aβ1–42 binding: ELISA with protease inhibitors, BSA subtracted, nonlinear regression fit
T2 construct: Amyloid beta 1–42 (Aβ1–42), a known RAGE ligand; purchased Bachem (Torrance, CA)
Procedure: as §1, §2

[3] = target: T1, RAGE Fc chimera; test: Far-Western dot blot: binding of RAGE to spotted proteins ± GM-0111; set-up: purchased R&D Systems Inc. (Minneapolis, MN); conditions: 1 μg spotted protein (0.5 μg Aβ1–42)
Procedure: as §2

[4] = target: T2, Aβ1–42; test: Far-Western dot blot: binding of Aβ1–42 to spotted neutrophil proteins; conditions: Aβ1–42 […] (56 nM) with protease inhibitor cocktail; 1 μg spotted protein
Procedure: After spotting, membranes were rinsed with ultrapure water, and Ponceau S (Sigma Aldrich) was used to stain for spotted proteins. Ponceau S was rinsed off with ultrapure water, and membrane blots were blocked for 2 h at room temperature in PBST containing 3% BSA. […] Blots were washed three times with PBST for 10 min, and then incubated with either rabbit anti-RAGE primary antibody (0.8μg/ml) or mouse anti-APP/Aβ (0.25μg/ml) for 2 h at room temperature. Blots were washed three times with PBST for 10 min, and then incubated with donkey anti-rabbit or donkey anti-mouse secondary antibodies at 0.04μg/ml for 45 min at room temperature. Blots were washed three times with PBST. Enhanced chemiluminescent or SuperSignal West femto maximum sensitivity substrates (Pierce) were used to develop blots. Mean dot densities were quantified and normalized to ponceau S dot densities using Image J software (National Institutes of Health (NIH), Bethesda, MD).
Blots were incubated with rocking overnight at 4°C.
as §2

[5] = target: T3, Aβ1–42 binding to RAGE (Homo sapiens, UniProt Q15109); test: ELISA: competitive inhibition of Aβ1–42 binding to RAGE by neutrophil proteins added simultaneously
T3 construct: purchased R&D Systems Inc. (RAGE Fc chimera); Bachem (Aβ1–42)
T3 sequence (Q15109 with tags, fused parts or gaps limits assumed): as above
Procedure: as §1, §2

[6] = target: T1, RAGE Fc chimera; test: ELISA: Aβ1–42 binding to RAGE after pre-incubation of Aβ1–42 with neutrophil proteins; set-up: purchased R&D Systems Inc. (RAGE Fc chimera); Bachem (Aβ1–42)
Procedure: as §1
In this set of experiments, the maxisorp plates were coated with RAGE Fc chimera (0.5 μg/well, 83.3 nM) overnight at 4°C.
as §2

Row | Substance | maximum absorbance value for RAGE binding [1] | Log binding (RAGE) ([1]; RAGE 0 nM (background)) | Log binding (RAGE) ([1]; RAGE 0.83 nM) | Log binding (RAGE) ([1]; RAGE 1.67 nM) | Log binding (RAGE) ([1]; RAGE 3.33 nM) | Log binding (Aβ1–42) ([2]; Aβ1–42 0 nM (background)) | Log binding (Aβ1–42) ([2]; Aβ1–42 3.47 nM) | Log binding (Aβ1–42) ([2]; Aβ1–42 13.89 nM) | Log binding (Aβ1–42) ([2]; Aβ1–42 27.78 nM) | Log binding (Aβ1–42) ([2]; Aβ1–42 55.56 nM) | maximum absorbance value for Aβ1–42 binding [2] | binding of RAGE (far-Western dot blot) [3] | binding of Aβ1–42 (far-Western dot blot) [4] | Log binding (Aβ1–42) ([2]; Aβ1–42 […]) | pIC50 ([5]; read-out: IC50 for inhibition of Aβ1–42 binding to RAGE, Aβ1–42 11 nM added simultaneously with the protein to RAGE-coated wells, absence of protease inhibitors) | inhibition of Aβ1–42 binding to RAGE in the presence of protease inhibitors ([5]; with protease inhibitor cocktail, Aβ1–42 11 nM) | maximum absorbance value for Aβ1–42 binding to RAGE ([6]; Aβ1–42 pre-incubated with neutrophil elastase 2 μg/ml) | pKd ([6]; read-out: KD value for Aβ1–42 binding to RAGE, Aβ1–42 pre-incubated overnight 4°C with neutrophil elastase 2 μg/ml (80 nM))
1 | cathepsin G | 2.14 | -0.426 | • 0.101±0.084 • p<0.0001 | • 0.166±0.092 • p<0.0001 | • 0.192±0.096 • p<0.0001 | • -0.884±0.103 • p = 0.0004 | • -0.368±0.157 • p<0.0001 | • 0.019±0.165 • p<0.0001 | • 0.151±0.149 • p<0.0001 | • 0.310±0.125 • p<0.0001 | 3.54 | not significantly higher than RAGE binding to BSA | strong binding |  |  |  |  | 
2 | neutrophil elastase | 1.11 | -0.756 | -0.376 | • -0.274±0.113 • p = 0.046 | • -0.121±0.104 • p = 0.003 | -1.061 | -0.961 | • -0.720±0.151 • p = 0.0064 | • -0.414±0.154 • p<0.0001 | • -0.146±0.153 • p<0.0001 | 5.89 | did not detect visible binding | low binding | • -0.890±0.127 • p = 0.0064 | 8.31 | No inhibition | 0.15 OD 492 nm | 6.88
3 | bovine serum albumin [BSA, reference compound] |  |  |  |  |  |  |  |  |  |  |  | did not detect visible binding | No binding |  |  |  |  | 
